Assay results taken from patent publication US20170137513A1.

Target: T1, monkey CD22 (Rhesus monkey) (UniProt H9G1X2)
T1 sequence: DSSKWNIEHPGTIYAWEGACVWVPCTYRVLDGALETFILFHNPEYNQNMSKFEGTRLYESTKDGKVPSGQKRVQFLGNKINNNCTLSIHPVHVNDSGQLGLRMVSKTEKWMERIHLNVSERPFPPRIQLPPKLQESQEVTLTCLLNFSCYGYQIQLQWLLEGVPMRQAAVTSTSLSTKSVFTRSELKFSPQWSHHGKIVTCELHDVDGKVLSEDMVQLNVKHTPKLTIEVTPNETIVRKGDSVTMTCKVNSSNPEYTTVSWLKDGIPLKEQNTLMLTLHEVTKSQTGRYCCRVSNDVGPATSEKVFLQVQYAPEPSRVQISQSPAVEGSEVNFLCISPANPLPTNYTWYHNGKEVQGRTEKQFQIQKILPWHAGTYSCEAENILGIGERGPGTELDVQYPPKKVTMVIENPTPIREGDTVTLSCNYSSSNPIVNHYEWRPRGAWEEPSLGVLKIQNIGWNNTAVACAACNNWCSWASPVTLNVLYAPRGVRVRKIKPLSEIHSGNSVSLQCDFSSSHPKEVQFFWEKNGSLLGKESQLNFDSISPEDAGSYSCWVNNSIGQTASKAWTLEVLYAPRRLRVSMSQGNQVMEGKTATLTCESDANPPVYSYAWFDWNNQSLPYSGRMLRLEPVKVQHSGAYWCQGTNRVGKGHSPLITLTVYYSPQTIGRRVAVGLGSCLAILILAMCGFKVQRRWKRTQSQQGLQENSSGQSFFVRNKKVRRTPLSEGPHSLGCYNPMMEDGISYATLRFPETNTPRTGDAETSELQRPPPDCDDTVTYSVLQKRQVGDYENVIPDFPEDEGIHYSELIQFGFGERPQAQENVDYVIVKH
Test: flow cytometry, direct immunofluorescence on Rhesus monkey PBMC

B1: RFB4 monoclonal antibody (antibody, V domains shown)
VH: EVQLVESGGGLVKPGGSLKLSCAASGFAFSIYDMSWVRQTPEKRLEWVAYISSGGGTTYYPDTVKGRFTISRDNAKNTLYLQMSSLKSEDTAMYYCARHSGYGSSYGVLFAYWGQGTLVTVSA
VL: DIQMTQTTSSLSASLGDRVTISCRASQDISNYLNWYQQKPDGTVKLLIYYTSILHSGVPSRFSGSGSGTDYSLTISNLEQEDFATYFCQQGNTLPWTFGGGTKLEIK
percent positive cells: 31.3%
